The chains are these.
B1: Protein Tube (Drosophila melanogaster (Fruit fly)), P22812 (parent)
chain: MAYGWNGCGMGVQVNGSNGAIGLSSKYSRNTELRRVEDNDIYRLAKILDENSCWRKLMSIIPKGMDVQACSGAGCLNFPAEIKKGFKYTAQDVFQIDEAANRLPPDQSKSQMMIDEWKTSGKLNERPTVGVLLQLLVQAELFSAADFVALDFLNESTPARPVDGPGALISLELLEEEMEVDNEGLSLKYQSSTATLGADAQGSVGLNLDNFEKDIVRRDKSVPQPSGNTPPIAPPRRQQRSTTNSNFATLTGTGTTSTTIPNVPNLTILNPSEQIQEPVLQPRPMNIPDLSILISNSGDLRATVSDNPSNRTSSTDPPNIPRITLLIDNSGDVNSRPNHAPAKASTATTSTASSNNLPMISALNISKGSRETLRPESRSSSSSLSKDDDDDNDGEEDGEEEYPDAFLPNLSNSEQQSSNNDSSLTTVTGTSGDNSFELTNDSSSTSNDDYACNIPDLSELQQ
partner: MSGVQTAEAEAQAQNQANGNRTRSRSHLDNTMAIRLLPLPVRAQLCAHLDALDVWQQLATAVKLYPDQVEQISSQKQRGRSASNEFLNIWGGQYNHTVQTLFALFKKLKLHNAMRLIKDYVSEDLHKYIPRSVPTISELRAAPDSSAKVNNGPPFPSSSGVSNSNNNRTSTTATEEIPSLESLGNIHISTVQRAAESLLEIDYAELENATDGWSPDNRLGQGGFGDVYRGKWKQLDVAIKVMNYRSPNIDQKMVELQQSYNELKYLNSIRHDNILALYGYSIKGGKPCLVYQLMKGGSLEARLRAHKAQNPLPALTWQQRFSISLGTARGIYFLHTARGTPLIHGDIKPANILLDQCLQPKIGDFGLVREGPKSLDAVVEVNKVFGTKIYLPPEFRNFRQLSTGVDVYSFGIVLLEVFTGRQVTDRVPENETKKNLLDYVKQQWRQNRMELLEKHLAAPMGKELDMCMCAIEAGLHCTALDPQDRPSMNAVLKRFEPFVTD

In the assay the parent is B1. The conditions noted are these: with kpel_drome pll.
Consider MAYGWNGCGMGVQVNGSNGAIGLSSKYSRNTELRRVEDNDIYRLAKILDKNSCWRKLMSIIPKGMDVQACSGAGCLNFPAEIKKGFKYTAQDVFQIDEAANRLPPDQSKSQMMIDEWKTSGKLNERPTVGVLLQLLVQAELFSAADFVALDFLNESTPARPVDGPGALISLELLEEEMEVDNEGLSLKYQSSTATLGADAQGSVGLNLDNFEKDIVRRDKSVPQPSGNTPPIAPPRRQQRSTTNSNFATLTGTGTTSTTIPNVPNLTILNPSEQIQEPVLQPRPMNIPDLSILISNSGDLRATVSDNPSNRTSSTDPPNIPRITLLIDNSGDVNSRPNHAPAKASTATTSTASSNNLPMISALNISKGSRETLRPESRSSSSSLSKDDDDDNDGEEDGEEEYPDAFLPNLSNSEQQSSNNDSSLTTVTGTSGDNSFELTNDSSSTSNDDYACNIPDLSELQQ [E50K], for which the “effect of a mutation on the interaction” value is reported as “decreasing interaction”.

The values above are taken from IntAct's records for PubMed 12351681.
